For the assay, the target named is SmLip residues 27-176 (mature Lip minus signal peptide) fused to T18 (pSC072) or to T25 (pSC080) (Serratia marcescens). The assay is described as follows: two-hybrid.

Drawing on publication PMC3225178, this text covers β-galactosidase activity (two-hybrid output) for 1 substance.

Regarding “SmLip residues 27-176 (mature Lip minus signal peptide) fused to T18 (pSC072) or to T25 (pSC080) (domain or fragment)”, the β-galactosidase activity (two-hybrid output) was above 5000 Miller units.
